Reference: patent publication EP3988566A1

Columns and labels:
[1] = target: amyloid beta 1-42 monomers (UniProt P05067); assay: cell-based or functional assay
amyloid beta 1-42 fibers = amyloid beta 1-42 fibers (UniProt P05067); assay: cell-based or functional assay
Sequence of amyloid beta 1-42 fibers (P05067 672-713 limits assumed): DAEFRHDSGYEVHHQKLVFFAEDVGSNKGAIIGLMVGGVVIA

Sequence of amyloid beta 1-42 monomers (P05067 672-713 limits assumed): as above

“humanized anti-human amyloid beta monoclonal antibody hC2” gave an inhibition of Aβ1-42 aggregation, thioflavin T assay, antibody to Aβ1-42 molar ratio 1:10 [1] of 80.4%, an inhibition of Aβ1-42 aggregation, thioflavin T assay, antibody to Aβ1-42 molar ratio 1:100 [1] of 30% and a disaggregation of pre-aggregated Aβ1-42, thioflavin T assay, antibody to Aβ1-42 molar ratio 1:10 (amyloid beta 1-42 fibers) of 31.9%. The disaggregation of pre-aggregated Aβ1-42, thioflavin T assay, antibody to Aβ1-42 molar ratio 1:100 (amyloid beta 1-42 fibers) was 23.9%.
